{
  "source": "patent US5156956A",
  "about": "“Transgultaminase” (Ajinomoto Co., Inc., priority 1987, dated 1992)",
  "molecules": {"B1": {"name": "BTGase: microorganism-derived transglutaminase; in Examples 4-11 the freeze dried product prepared in Example 1 (S. mobaraense, i.e. BTG-1) (protein, UniProt P81453 77-407, looked up)", "Protein-glutamine …": "DSDDRVTPPAEPLDRMPDPYRPSYGRAETVVNNYIRKWQQVYSHRDGRKQQMTEEQREWLSYGCVGVTWVNSGQYPTNRLAFASFDEDRFKNELKNGRPRSGETRAEFEGRVAKESFDEEKGFQRAREVASVMNRALENAHDESAYLDNLKKELANGNDALRNEDARSPFYSALRNTPSFKERNGGNHDPSRMKAVIYSKHFWSGQDRSSSADKRKYGDPDAFRPAPGTGLVDMSRDRNIPRSPTSPGEGFVNFDYGWFGAQTEADADKTVWTHGNHYHAPNGSLGAMHVYESKFRNWSEGYSDFDRGAYVITFIPKSWNTAPDKVKQGWP"}},
  "key": {"[1]": {"test_system": "Prawn myosin", "experiment": "Gelation, test tube inversion method", "assay_type": "biochemical", "design": "key: .smallcircle.: gelled; Δ: weakly gelled; x: remained as solution", "conditions": "5 ml, 3.6 units of BTGase, 35° C., 35 minutes at maximum, MTGase 0.1 U/mg, 37° C., 1 h", "description": "3) Prawn myosin was prepared as follows for use as a substrate for BTGase.\nThe shell of a fresh (live) prawn (body length of about 5 cm) was peeled off and the prawn flection muscle was taken out. After mincing, the mince was washed with ice water and homogenized under cooling in the presence of 0.1 mM DTT and 0.1 mM PMSF. By centrifugation, actomyosin was extracted and separated therefrom. By further ultracentrifugation at 10^5 ×g for 60 minutes, actin was removed to give a myosin-rich fraction. Further dilution precipitation and ultracentrifugation were repeated to give purified prawn myosin. […] By immersing in a water bath at 35° C., the reaction was initiated and carried out for 35 minutes at maximum.\n(§1) For purposes of comparison, the results of gelation ability test with MTGase are also shown. The amount of MTGase added was 0.1 U per 1 mg of substrate protein."}, "[2]": {"test_system": "Gelatin", "experiment": "Gelatin gel after heating in boiling water bath", "assay_type": "biochemical", "design": "key: x: complete solution; .smallcircle.: gelled condition (not dissolved even after heating)", "conditions": "0.02 U/mg protein, 37° C. 1 h, then boiling water bath 10 minutes", "description": "0.1M Tris-HCl buffer (pH 7.6) was added to gelatin (manufactured by Nitta Gelatin Co., Ltd.) so as to form 5.10 wt. % solution. Gelatin was completely dissolved at 60° C. for 3 minutes and the same BTGase as that of Example 4 was added to the solution in 0.02 U/mg protein. After thoroughly mixing, the mixture was reacted at 37° C. for an hour and then heated in a boiling water bath for 10 minutes. Immediately thereafter, the condition was observed.\nFor purposes of comparison, the system which was identically treated except for adding no BTGase was used as control."}, "[3]": {"test_system": "oxhide-derived atelo-collagen", "experiment": "Gelation of atelo-collagen solutions", "assay_type": "biochemical, ox", "design": "key: .smallcircle.: gelled; Δ: weakly gelled; x: remained as solution", "conditions": "0.05 U/mg protein; for Gelation, Immediately After Completion of Incubation: 55° C. 60 minutes; for Gelation, After Heating at 100° C.: 100° C. 15 minutes; for Gelation, After Allowing to Stand for 60 Minutes: room temperature", "description": "A necessary amount of oxhide-derived atelo-collagen powders (manufactured by Kouken K.K.) were taken in a test tube and 2 ml of 0.1M Tris-HCl buffer (pH 7.5) was added thereto. After maintaining in a water bath at 55° C. for 15 minutes, the mixture was stirred to prepare 3 to 10% atelo-collagen solutions. Before the solutions of high concentration were gelled due to cooling, BTGase was added thereto in 0.05 U/mg protein followed by incubation at 55° C. for 60 minutes. As a control for the all samples, 10% atelo-collagen solution with no BTGase added was also incubated likewise. Immediately after completion of the incubation, the system was allowed to stand at room temperature for 60 minutes. Then the system was further kept in a water bath of 100° C. for 15 minutes and then the condition in the test tube was observed."}, "[4]": {"test_system": "Ajipron S-2 (soybean protein isolate)", "experiment": "Gelation, test tube inversion method", "assay_type": "biochemical", "design": "key: .smallcircle.: gelled; Δ: weakly gelled; x: remained as solution", "conditions": "BTGase 0.02 U/mg protein, 55° C., 1 h, MTGase 0.1 U/mg, 37° C.", "description": "(§2) 1) The BTGase (freeze dried product, specific activity of 2.50 Units/mg protein) prepared in Example 1 was added to 5 ml of each of 5 and 10 wt. % solutions or suspensions of protein foodstuffs prepared by the method described in Example 1 of Published Unexamined Japanese Patent Application No. 149645/83 or purchased, namely, (1) αsi -casein, (2) Na-caseinate, (3) soybean 11S globulin, (4) soybean 7S globulin, (5) soybean protein isolate \"Ajipron S-2\" (manufactured by Ajinomoto Co., Inc.), (6) water-extracted soybean protein, (7) acid-precipitated soybean protein, (8) soybean protein particles, (9) soybean protein micelles and (10) gelatin in 0.02 U per 1 mg of protein followed by shake incubation at 55° C. for an hour. After allowing to stand at room temperature, test tubes with samples were turned upside down, whereby gelation was determined by noting whether the samples drifted down or not.\nas §1"}, "[5]": {"test_system": "αS1 -Casein", "experiment": "Gelation, test tube inversion method", "assay_type": "biochemical", "design": "key: .smallcircle.: gelled; Δ: weakly gelled; x: remained as solution", "conditions": "BTGase 0.02 U/mg protein, 55° C., 1 h, MTGase 0.1 U/mg, 37° C.", "description": "as §2, §1"}, "[6]": {"test_system": "Na-Caseinate", "experiment": "Gelation, test tube inversion method", "assay_type": "biochemical", "design": "key: .smallcircle.: gelled; Δ: weakly gelled; x: remained as solution", "conditions": "BTGase 0.02 U/mg protein, 55° C., 1 h, MTGase 0.1 U/mg, 37° C.", "description": "as §2, §1"}, "[7]": {"test_system": "Water-extracted soybean protein", "experiment": "Gelation, test tube inversion method", "assay_type": "biochemical", "design": "key: .smallcircle.: gelled; Δ: weakly gelled; x: remained as solution", "conditions": "BTGase 0.02 U/mg protein, 55° C., 1 h, MTGase 0.1 U/mg, 37° C.", "description": "as §2, §1"}, "[8]": {"test_system": "Soybean 7S globulin", "experiment": "Gelation, test tube inversion method", "assay_type": "biochemical", "design": "key: .smallcircle.: gelled; Δ: weakly gelled; x: remained as solution", "conditions": "BTGase 0.02 U/mg protein, 55° C., 1 h, MTGase 0.1 U/mg, 37° C.", "description": "as §2, §1"}, "[9]": {"test_system": "Acid-precipitated soybean protein", "experiment": "Gelation, test tube inversion method", "assay_type": "biochemical", "design": "key: .smallcircle.: gelled; Δ: weakly gelled; x: remained as solution", "conditions": "BTGase 0.02 U/mg protein, 55° C., 1 h, MTGase 0.1 U/mg, 37° C.", "description": "as §2, §1"}, "[10]": {"test_system": "Soybean protein particles", "experiment": "Gelation, test tube inversion method", "assay_type": "biochemical", "design": "key: .smallcircle.: gelled; Δ: weakly gelled; x: remained as solution", "conditions": "BTGase 0.02 U/mg protein, 55° C., 1 h, MTGase 0.1 U/mg, 37° C.", "description": "as §2, §1"}, "[11]": {"test_system": "Gelatin", "experiment": "Gelation, test tube inversion method", "assay_type": "biochemical", "design": "key: .smallcircle.: gelled; Δ: weakly gelled; x: remained as solution", "conditions": "BTGase 0.02 U/mg protein, 55° C., 1 h, MTGase 0.1 U/mg, 37° C.", "description": "as §2, §1"}, "[12]": {"test_system": "Soybean 11S globulin", "experiment": "Gelation, test tube inversion method", "assay_type": "biochemical", "design": "key: .smallcircle.: gelled; Δ: weakly gelled; x: remained as solution", "conditions": "BTGase 0.02 U/mg protein, 55° C., 1 h, MTGase 0.1 U/mg, 37° C.", "description": "as §2, §1"}, "[13]": {"test_system": "Soybean protein micells", "experiment": "Gelation, test tube inversion method", "assay_type": "biochemical", "design": "key: .smallcircle.: gelled; Δ: weakly gelled; x: remained as solution", "conditions": "BTGase 0.02 U/mg protein, 55° C., 1 h, MTGase 0.1 U/mg, 37° C.", "description": "as §2, §1"}},
  "data": [
    {"molecule": "B1", "values": [
      {"measurement": "Gelation, Prawn myosin 3.6%", "setting": "[1]", "value": ".smallcircle."},
      {"measurement": "Condition of 5% Gelatin, +BTG", "setting": "[2]", "value": ".smallcircle."},
      {"measurement": "Condition of 10% Gelatin, +BTG", "setting": "[2]", "value": ".smallcircle."},
      {"measurement": "Gelation, Immediately After Completion of Incubation", "setting": "[3]; 3% Solution", "value": ".smallcircle."},
      {"measurement": "Gelation, After Heating at 100° C.", "setting": "[3]; 3% Solution", "value": ".smallcircle."},
      {"measurement": "Gelation, After Allowing to Stand for 60 Minutes", "setting": "[3]; 3% Solution", "value": ".smallcircle."},
      {"measurement": "Gelation, Immediately After Completion of Incubation", "setting": "[3]; 5% Solution", "value": ".smallcircle."},
      {"measurement": "Gelation, After Heating at 100° C.", "setting": "[3]; 5% Solution", "value": ".smallcircle."},
      {"measurement": "Gelation, After Allowing to Stand for 60 Minutes", "setting": "[3]; 5% Solution", "value": ".smallcircle."},
      {"measurement": "Gelation, Immediately After Completion of Incubation", "setting": "[3]; 10% Solution", "value": ".smallcircle."},
      {"measurement": "Gelation, After Heating at 100° C.", "setting": "[3]; 10% Solution", "value": ".smallcircle."},
      {"measurement": "Gelation, After Allowing to Stand for 60 Minutes", "setting": "[3]; 10% Solution", "value": ".smallcircle."},
      {"measurement": "Gelation, Ajipron S-2 5%", "setting": "[4]; 5%", "value": ".smallcircle."},
      {"measurement": "Gelation, Ajipron S-2 10%", "setting": "[4]; 10%", "value": ".smallcircle."},
      {"measurement": "Gelation, αS1 -Casein 5%", "setting": "[5]; 5%", "value": ".smallcircle."},
      {"measurement": "Gelation, αS1 -Casein 10%", "setting": "[5]; 10%", "value": ".smallcircle."},
      {"measurement": "Gelation, Na-Caseinate 5%", "setting": "[6]; 5%", "value": ".smallcircle."},
      {"measurement": "Gelation, Na-Caseinate 10%", "setting": "[6]; 10%", "value": ".smallcircle."},
      {"measurement": "Gelation, Water-extracted soybean protein 5%", "setting": "[7]; 5%", "value": ".smallcircle."},
      {"measurement": "Gelation, Water-extracted soybean protein 10%", "setting": "[7]; 10%", "value": ".smallcircle."},
      {"measurement": "Gelation, Soybean 7S globulin 5%", "setting": "[8]; 5%", "value": ".smallcircle."},
      {"measurement": "Gelation, Soybean 7S globulin 10%", "setting": "[8]; 10%", "value": ".smallcircle."},
      {"measurement": "Gelation, Acid-precipitated soybean protein 5%", "setting": "[9]; 5%", "value": ".smallcircle."},
      {"measurement": "Gelation, Acid-precipitated soybean protein 10%", "setting": "[9]; 10%", "value": ".smallcircle."},
      {"measurement": "Gelation, Soybean protein particles 5%", "setting": "[10]; 5%", "value": ".smallcircle."},
      {"measurement": "Gelation, Soybean protein particles 10%", "setting": "[10]; 10%", "value": ".smallcircle."},
      {"measurement": "Gelation, Gelatin 5%", "setting": "[11]; 5%", "value": ".smallcircle."},
      {"measurement": "Gelation, Gelatin 10%", "setting": "[11]; 10%", "value": ".smallcircle."},
      {"measurement": "Gelation, Soybean 11S globulin 5%", "setting": "[12]; 5%", "value": ".smallcircle."},
      {"measurement": "Gelation, Soybean 11S globulin 10%", "setting": "[12]; 10%", "value": ".smallcircle."},
      {"measurement": "Gelation, Soybean protein micells 5%", "setting": "[13]; 5%", "value": "Δ"},
      {"measurement": "Gelation, Soybean protein micells 10%", "setting": "[13]; 10%", "value": ".smallcircle."}
    ]}
  ]
}
